One substance from patent publication US20100310588A1 can be followed below.

In the assay the target is BDC2.5 T cell receptor (transgenic TCR alpha/beta of BDC2.5 TCR Tg mice) (mouse). Nature of the assay: cell-based or functional assay.

“p31-I-A^g7 multimer (recombinant MHC class II I-A^g7 presenting the BDC2.5 TCR mimotope peptide 1040-31) (peptide-MHC)” returned a fold expansion of antigen-specific cells during the 10 day culture (lowest seeding, 0.001%) of 5000 fold.
